Reference: patent publication US8409836B2, “Treatment of cellulosic material and enzymes useful therein” (Roal Oy, priority 2005, dated 2013)
Values joined by “and” are separate entries in the source; they are usually repeats but may differ in a detail not shown here. Equal entries are not always repeated.

Experiments:
[1] = pH optimum of heterologously produced β-glucosidases; type: biochemical; details: McIlvaine's buffer, pH range 3.0-8.0, 4-nitrophenyl-β-D-glucopyranoside
Method: (§1) The pH optimum of the heterologously produced β-glucosidases was determined in the universal McIlvaine's buffer within a pH range of 3.0-8.0 using 4-nitrophenyl-β-D-glucopyranoside as substrate. The pH optima for the Acremonium βG—101, Chaetomium βG—76, and Thermoascus βG—81 are pH 4.5, 5.5, and 4.5, respectively (FIG. 7 A). The optimal temperature for enzymatic activity of these β-glucosidases was determined at the temperature range of 50-85° C. as described above. The highest activity of the enzymes was determined to be at 70° C., 65° C., and 75° C. for the Acremonium βG—101/Cel3A, Chaetomium βG—76/Cel3A, and Thermoascus βG—81/Cel3A, respectively (FIG. 7 B).

[2] = β-glucosidase activity on 4-nitrophenyl-β-D-glucopyranoside; type: biochemical
Method: (§2) Acremonium Thermophilum ALKO4245 was grown as described in Example 1. The pure β-glucosidase was obtained by sequential purification with hydrophobic interaction and anion exchange chromatography followed by gel filtration. The β-glucosidase activity of the fractions collected during purification was determined using 4-nitrophenyl-β-D-glucopyranoside as substrate (Bailey and Linko, 1990). Protein content was measured by BioRad Assay Kit (Bio-Rad Laboratories) using bovine serum albumine as standard.
as §2, with “Thermoascus aurantiacus ALKO4242” for “Acremonium Thermophilum ALKO4245”, “interaction, anion” for “interaction”, “cation” for “anion”

[3] = Isoelectric focusing (PhastSystem), pI of purified protein; type: physicochemical; details: IEF gel
Method: The sample was dissolved in water and applied to a Superdex 75 HR 10/30 gel filtration column equilibrated with 20 mM sodium phosphate pH 6.0, containing 0.15 M NaCl. Fractions were collected and those containing endoglucanase activity were combined. The protein eluate was judged to be pure by SDS-polyacrylamide gel electrophoresis and the molecular mass was evaluated on the basis of molecular mass standards (prestained SDS-PAGE standards, Broad Range, Bio-Rad) to be 54 kDa. The pI of the purified protein, designated as Ct EG—54 was determined with PhastSystem (Pharmacia) to be ca 5.5.
The sample was applied to a Sephacryl S-100 HR 26/60 gel filtration column equilibrated with 50 mM sodium acetate buffer pH 5.0, containing 0.05 M NaCl. The protein fraction containing endoglucanase activity was eluted from the column with a retention volume corresponding to a molecular weight of 16 kDa. Collected fractions were combined, concentrated and gel filtration was repeated. The protein eluate was judged to be pure by SDS-polyacryl amide gel electrophoresis and the molecular weight was evaluated to be 28 kDa. The pI of the purified protein, designated as Ta EG—28, was determined in an IEF gel (PhastSystem, Pharmacia) to be about 3.5. The specific activity of Ta EG—28 at 50° C. was determined to be 4290 nkat/mg (procedure of IUPAC 1987, using CMC as substrate).
The active material from the anion exchange chromatography was applied to a Sephacryl S-300 HR 26/60 column equilibrated with 20 mM sodium phosphate pH 6.5, containing 0.15 M NaCl. The protein with β-glucosidase activity was eluted with a retention volume corresponding to a molecular weight of 243 kDa. The protein was judged to be pure by SDS-polyacrylamide gel electrophoresis and the molecular weight was evaluated to be 101 kDa. The pI of the purified protein, designated as At βG—101, was determined in an IEF gel (PhastSystem, Pharmacia) to be in the area of 5.6-4.9. The specific activity of At βG—101 at 50° C. was determined to be 1100 nkat/mg (using 4-nitrophenyl-β-D-glucopyranoside as substrate, Bailey and Linko, 1990).
The active material from the cation exchange chromatography was applied to a Sephacryl S-300 HR 26/60 column equilibrated with 20 mM sodium phosphate pH 7.0, containing 0.15 M NaCl. The protein with β-glucosidase activity was eluted with a retention volume corresponding to a molecular weight of 294 kDa. […] The protein was judged to be pure by SDS-polyacrylamide gel electrophoresis and the molecular weight was evaluated to be 81 kDa, representing most likely the monomeric form of the protein. […] The specific activity of the purified protein, designated as Ta βG—81, at 50° C. was determined to be 600 nkat/mg using 4-nitrophenyl-β-D-glucopyranoside as substrate (Bailey and Linko, 1990). […]

[4] = system: Trichoderma-strains (A47 and Rut-C30); assay: Cellulase induction on βG_81 pretreated Nutriose in shake flask cultivation; type: cell-based; details: 7 days shake flask cultivation
Method: A high concentration starch hydrolysate mixture (Nutriose 74/968, Roquette) was treated with Thermoascus aurantiacus βG—81/Cel3A enriched enzyme preparation produced as described in Example 21 to produce a sugar mixture containing appreciable amounts of cellulase inducer (sophorose) to overcome the glucose repression.
The Ta βG—81/Cel3A enriched enzyme preparation was added to a 70% (w/w) Nutriose solution to a final concentration of 1 g total protein/liter. The container of the mixture was incubated in a water bath at 65° C. for 3 days with constant stirring and used as a carbon source in a shake flask medium for two different Trichoderma-strains (A47 and Rut-C30). The effect of the enzyme treatment was measured as an endoglucanase activity formed during a 7 days shake flask cultivation. As a reference cultivations were performed under the same conditions with untreated Nutriose as a carbon source.

[5] = Thermal stability of purified β-glucosidase; type: biochemical; details: 0.1 mg/ml BSA, pH 5.0, 60 min, 4-nitrophenyl-β-D-glucopyranoside
Method: (§3) Thermal stability of the purified β-glucosidase was determined at different temperatures. The reaction was performed in the presence of 0.1 mg/ml BSA at pH 5.0 for 60 min using 4-nitrophenyl-β-D-glucopyranoside as substrate. A. thermophilum βG—101 was stable up to 70° C. The Aspergillus reference enzyme (Novozym 188) retained 100% of activity up to 60°.
as §3, with “T. aurantiacus βG—81” for “A. thermophilum βG—101”, “75°” for “70°”, “60° C.” for “60°.”

[6] = Temperature optimum of heterologously produced β-glucosidases; type: biochemical; details: temperature range 50-85° C., 60 min
Method: as §1

B1: Ta βG_81: beta-glucosidase of Thermoascus aurantiacus ALKO4242, gene Ta cel3A, amino acid SEQ ID NO: 22 (protein)
chain: MRLGWLELAVAAAATVASAKDDLAYSPPFYPSPWMNGNGEWAEAYRRAVDFVSQLTLAEKVNLTTGVGWMQEKCVGETGSIPRLGFRGLCLQDSPLGVRFADYVSAFPAGVNVAATWDKNLAYLRGKAMGEEHRGKGVDVQLGPVAGPLGRHPDGGRNWEGFSPDPVLTGVLMAETIKGIQDAGVIACAKHFIGNEMEHFRQAGEAVGYGFDITESVSSNIDDKTLHELYLWPFADAVRAGVGSFMCSYNQVNNSYSCSNSYLLNKLLKSELDFQGFVMSDWGAHHSGVGAALAGLDMSMPGDTAFGTGKSFWGTNLTIAVLNGTVPEWRVDDMAVRIMAAFYKVGRDRYQVPVNFDSWTKDEYGYEHALVGQNYVKVNDKVDVRADHADIIRQIGSASVVLLKNDGGLPLTGYEKFTGVFGEDAGSNRWGADGCSDRGCDNGTLAMGWGSGTADFPYLVTPEQAIQNEILSKGKGLDSVSIVFVNADSGEGYINVDGNEGDRKNLTLWKGGEEVIKTVAANCNNTIVVMHTVGPVLIDEWYDNPNVTAIVWAGLPGQESGNSLVDVLYGRVSPGGKTPFTWGKTRESYGAPLLTKPNNGKGAPQDDFTEGVFIDYRRFDKYNETPIYEFGFGLSYTTFEYSNIYVQPLNARPYTPASGSTKAAPTFGNISTDYADYLYPEDIHKVPLYIYPWLNTTDPEEVLRRSRLTEMKAEDYIPSGATDGSPQPILPAGGAPGGNPGLYDEMYRVSAIITNTGNVVGDEVPQLYVSLGGPDDPKVVLRNFDRITLHPGQQTMWTTTLTRRDISNWDPASQNWVVTKYPKTVYIGSSSRKLHLQAPLPPY
- pH optimum [1]: 4.5
- β-glucosidase activity of the preparation ([2]; according to Bailey and Linko, 1990, listed as Ta βG—81/Cel3A): 6270 nkat/ml and 11500 nkat/ml
- Specific activity on 4-nitrophenyl-β-D-glucopyranoside ([2]; purified β-glucosidase, 50° C.): 600 nkat/mg
- pI of the purified protein [3]: > 5.85 and 4.55
- Endoglucanase activity formed on pretreated Nutriose versus untreated Nutriose [4]: More than two-fold increase
- Thermal stability: temperature up to which stable / 100% of activity retained [5]: up to 75 °C
- Temperature of highest activity [6]: 75 °C
